Experimental data reported in US20110135647.

Tested on: T1, pp1-18 peptide (cell-permeable peptide, RRRRRRRRRRR-G-MEGISNFKTPSKLSEKKK)
T1 sequence: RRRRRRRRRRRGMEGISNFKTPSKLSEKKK

## CDK1-cyclin B1 recombinant protein complex (New England Biolabs)
  phosphorylation of recombinant PBK/TOPK by CDK1-cyclin B1 (in vitro kinase assay with peptide added): the phosphorylation of recombinant PBK/TOPK protein by CDK1-cyclin B1 recombinant proteins was diminished in dose-dependent manner by addition of the pp 1-18 peptide
